Assay [1] deals with recombinant SARS-CoV-2 M^pro (Proteros) (SARS-CoV-2). In words: FRET enzymatic inhibition assay.
Assay [2] shares this target.

Regarding “compound 4 (acetyl-Gly-Phe-His aldehyde, tripeptide derivative of AT1001)”, the Kd (as a rule, the free concentration of one partner at which half of the binding sites on the other are occupied at equilibrium, for simple one-to-one binding) in assay [1] worked out at 1260 nM. Besides, the IC50 of inhibition of M^pro enzymatic activity (FRET substrate cleavage) in assay [2] stood at 2.51 µM.
The corresponding values for “compound 57 (BOC-Gly-Phe-His aldehyde) (peptide)” are 3260 nM and 6.49 µM.
The corresponding values for “compound 58 (octanoyl-Gly-Phe-His aldehyde) (peptide)” are 1190 nM and 2.37 µM.
